The source of these data is PMC4749557, “ETO family protein Mtgr1 mediates Prdm14 functions in stem cell maintenance and primordial germ cell formation” (eLife, 2015).

The Kd is the constant that tells how readily two partners part at equilibrium.

Residue numbers refer to the chain shown, from its start. In names and notes the source's numbering stands.

T1: recombinant Prdm14 pre-SET+SET domains (residues 184–373) (mouse, UniProt E9Q3T6 184-373, biotin (biotin-acceptor tag))
T1 construct: gene assembled from synthetic oligonucleotides in the pHBT vector; a TEV site lies between the tags and the protein; also called mouse Prdm14; source: E. coli BL21 (DE3) with pBirACm and 50 μM biotin, purified (Ni-Sepharose); not shown: biotin-acceptor tag, N-terminal, kept
T1 sequence (looked up): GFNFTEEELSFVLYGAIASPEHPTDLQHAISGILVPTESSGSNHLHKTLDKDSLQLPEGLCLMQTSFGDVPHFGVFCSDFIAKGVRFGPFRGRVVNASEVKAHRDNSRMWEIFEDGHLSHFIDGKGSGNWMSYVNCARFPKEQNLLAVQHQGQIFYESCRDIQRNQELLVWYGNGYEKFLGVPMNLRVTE

T2: recombinant Prdm14 (residues 184–373) E294K (mouse, UniProt E9Q3T6 184-373, E294K, biotin (biotin-acceptor tag))
T2 construct: also called E294K Prdm14; source: E. coli BL21 (DE3) with pBirACm and 50 μM biotin, purified (Ni-Sepharose); not shown: biotin-acceptor tag, N-terminal, kept
T2 sequence (looked up): T1 sequence (looked up) with E111K

B1: recombinant Mtgr1 NHR1 domain (residues 98–206) (domain or fragment, mouse, UniProt O70374 98-206, looked up)
chain: LPATCGARQLSKLKRFLTTLQQFGNDISPEIGEKVRTLVLALVNSTVTIEEFHCKLQEATNFPLRPFVIPFLKANLPLLQRELLHCARAAKQTPSQYLAQHEKLLLNTS
modifications: biotin (biotin-acceptor tag)
notes: Mtgr1 (Cbfa2t2), residues 98–206 (NHR1/TAFH domain), with H200K from a cloning artifact; pHBT vector; a TEV site lies between the tags and the protein; also called wt Mtgr1; source: E. coli BL21 (DE3) with pBirACm and 50 μM biotin, purified (Ni-Sepharose); not shown: biotin-acceptor tag, N-terminal, kept
B2: recombinant Mtgr1 NHR1 domain (residues 98–206) K109E (domain or fragment, mouse, UniProt O70374 98-206, looked up)
chain: B1 chain with K12E
modifications: biotin (biotin-acceptor tag)
notes: Mtgr1 (Cbfa2t2), residues 98–206, K109E on the pHBT construct that carries H200K; also called Mtgr1(K109E); source: E. coli BL21 (DE3) with pBirACm and 50 μM biotin, purified (Ni-Sepharose); not shown: biotin-acceptor tag, N-terminal, kept
B3: human PRDM14 (residues 238–487) (domain or fragment, UniProt Q9GZV8 238-487, looked up)
chain: LPQTLDKDSLQLPEGLCLMQTVFGEVPHFGVFCSSFIAKGVRFGPFQGKVVNASEVKTYGDNSVMWEIFEDGHLSHFIDGKGGTGNWMSYVNCARFPKEQNLVAVQCQGHIFYESCKEIHQNQELLVWYGDCYEKFLDIPVSLQVTEPGKQPSGPSEESAEGYRCERCGKVFTYKYYRDKHLKYTPCVDKGDRKFPCSLCKRSFEKRDRLRIHILHVHEKHRPHKCSTCGKCFSQSSSLNKHMRVHSGDR
modifications: biotin (biotin-acceptor tag)
notes: vector based on p28BIOH-LIC; expression vector from the Structural Genomics Consortium; also called hPRDM14; source: E. coli BL21 (DE3) with pBirACm and 50 μM biotin, purified (Ni-Sepharose); not shown: biotin-acceptor tag, N-terminal, kept
B4: Mb(hPRDM14_S4) displayed on the yeast surface (designed binder)
chain: VSSVPTKLEVVAATPTSLLISWDAPAVTVDLYFITYGETGGNSPVQKFTVPGSKSTATISGLKPGVDYTITVYAQYYYRGWYVGSPISINYRT

The target of assay [1] is T1, recombinant Prdm14 pre-SET+SET domains …. The assay can be described thus: bead-based binding assay; biotinylated Prdm14 immobilised on streptavidin M280 beads, biotinylated Mtgr1 (NHR1) in solution, detected with SAV-Dylight650 by flow cytometer; 50 mM Tris–HCl, 150 mM NaCl, pH 8, 1 mg/ml BSA, 1 mM EDTA, 0.1 mM DTT; 1:1 model. The following applies: both partners purified. A general note: Flow cytometry measures light scatter and fluorescence of single cells or particles in a stream.

For assay [2], the target named is T2, recombinant Prdm14 (residues 184–373) …. The assay is described as follows: bead-based binding assay; biotinylated Mtgr1 (NHR1) immobilised on streptavidin M280 beads, biotinylated Prdm14 in solution, detected with SAV-Dylight650 by flow cytometer; 50 mM Tris–HCl, 150 mM NaCl, pH 8, 1 mg/ml BSA, 1 mM EDTA, 0.1 mM DTT; 1:1 model. The following applies: both partners purified.

The target in assay [3] is B4. The assay can be described thus: yeast surface display; monobodies on the yeast surface with 50 nM of hPRDM14 or a homologue. As to conditions: one partner purified.
Assay [4] has as its target B3. The assay is described as follows: yeast surface display; KD of monobody clones displayed on yeast for hPRDM14. The following applies: one partner purified.

As to B1, the binding result in assay [1] is “binds”. B2: the binding result in assay [2] is given as “binds”. For B3, the “fold stronger binding than hPRDM6 and hPRDM12” value in assay [3] is not below 5 fold. As to B4, the dissociation constant (Kd) in assay [4] was less than 100 nM.
